The supplement of paper PMC9112550, “Optimization of the antimicrobial peptide Bac7 by deep mutational scanning” (BMC Biology, 2022)

What follows are sequences tested on Escherichia coli TOP10 (assay: shrunken log2 fold change of peptide-encoding DNA abundance (4.5 h post-induction vs induction); higher = less antimicrobial activity (less host growth inhibition)). Conditions: time post-induction: 4.5 h; library: site-saturation at positions 5, 18, 19, 20.
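Also: peptides expressed intracellularly from a pBAD plasmid library in pooled LB shake-flask culture, induced with 0.3% L-arabinose, DNA abundance read by NGS, three biological replicates, DESeq2 with apeglm shrinkage.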

Sequence	shrunken log2 fold change
RRIRHRPPRLPRPRPRPSSDPRP	-0.529
RRIRHRPPRLPRPRPRPSSKPRP	-0.0453
RRIRHRPPRLPRPRPRPSTSPRP	-0.478
RRIRHRPPRLPRPRPRPSVYPRP	-0.47
RRIRHRPPRLPRPRPRPSWKPRP	-0.0518
RRIRHRPPRLPRPRPRPSYIPRP	-1.77
RRIRHRPPRLPRPRPRPSYQPRP	-1.14
RRIRHRPPRLPRPRPRPTAWPRP	0.0946
RRIRHRPPRLPRPRPRPTDGPRP	-0.0791
RRIRHRPPRLPRPRPRPTDIPRP	-0.668
RRIRHRPPRLPRPRPRPTEPPRP	0.0484
RRIRHRPPRLPRPRPRPTFQPRP	-0.067
RRIRHRPPRLPRPRPRPTGGPRP	0.0928
RRIRHRPPRLPRPRPRPTHQPRP	0.243
RRIRHRPPRLPRPRPRPTIHPRP	-0.552
RRIRHRPPRLPRPRPRPTIIPRP	-0.494
RRIRHRPPRLPRPRPRPTIRPRP	-0.689
RRIRHRPPRLPRPRPRPTIVPRP	-0.292
RRIRHRPPRLPRPRPRPTIYPRP	-0.254
RRIRHRPPRLPRPRPRPTKYPRP	-0.345
RRIRHRPPRLPRPRPRPTLMPRP	-0.0715
RRIRHRPPRLPRPRPRPTLYPRP	-0.362

Sequence	shrunken log2 fold change
RRIRHRPPRLPRPRPRPTMAPRP	-0.0607
RRIRHRPPRLPRPRPRPTMNPRP	-0.173
RRIRHRPPRLPRPRPRPTNCPRP	-0.197
RRIRHRPPRLPRPRPRPTQCPRP	-0.0253
RRIRHRPPRLPRPRPRPTQEPRP	-0.0394
RRIRHRPPRLPRPRPRPTQSPRP	0.113
RRIRHRPPRLPRPRPRPTRCPRP	-0.00896
RRIRHRPPRLPRPRPRPTRKPRP	0.00421
RRIRHRPPRLPRPRPRPTVAPRP	0.325
RRIRHRPPRLPRPRPRPTVPPRP	-0.0133
RRIRHRPPRLPRPRPRPTWAPRP	0.303
RRIRHRPPRLPRPRPRPTWTPRP	2.15e-05
RRIRHRPPRLPRPRPRPTWVPRP	0.078
RRIRHRPPRLPRPRPRPTYGPRP	-0.106
RRIRHRPPRLPRPRPRPVCYPRP	-0.663
RRIRHRPPRLPRPRPRPVDFPRP	0.0522
RRIRHRPPRLPRPRPRPVDLPRP	-0.314
RRIRHRPPRLPRPRPRPVDVPRP	-0.119
RRIRHRPPRLPRPRPRPVEGPRP	0.105
RRIRHRPPRLPRPRPRPVFAPRP	0.12
RRIRHRPPRLPRPRPRPVFEPRP	-0.153
RRIRHRPPRLPRPRPRPVFPPRP	0.171

Sequence	shrunken log2 fold change
RRIRHRPPRLPRPRPRPVGNPRP	0.0182
RRIRHRPPRLPRPRPRPVHCPRP	-0.159
RRIRHRPPRLPRPRPRPVKSPRP	-0.0219
RRIRHRPPRLPRPRPRPVMGPRP	0.0268
RRIRHRPPRLPRPRPRPVPMPRP	0.0504
RRIRHRPPRLPRPRPRPVQPPRP	-0.0332
RRIRHRPPRLPRPRPRPVRCPRP	0.592
RRIRHRPPRLPRPRPRPVSSPRP	-0.0295
RRIRHRPPRLPRPRPRPVTQPRP	-0.296
RRIRHRPPRLPRPRPRPVTWPRP	-0.268
RRIRHRPPRLPRPRPRPVVHPRP	-0.115
RRIRHRPPRLPRPRPRPVWHPRP	0.0453
RRIRHRPPRLPRPRPRPVYFPRP	-0.508
RRIRHRPPRLPRPRPRPVYQPRP	-0.359
RRIRHRPPRLPRPRPRPVYSPRP	-0.0167
RRIRHRPPRLPRPRPRPVYTPRP	-0.206
RRIRHRPPRLPRPRPRPWAEPRP	-0.119
RRIRHRPPRLPRPRPRPWCWPRP	0.0593
RRIRHRPPRLPRPRPRPWFEPRP	-0.366
RRIRHRPPRLPRPRPRPWFFPRP	-0.379
RRIRHRPPRLPRPRPRPWGNPRP	-0.0654
RRIRHRPPRLPRPRPRPWHCPRP	0.162

Sequence	shrunken log2 fold change
RRIRHRPPRLPRPRPRPWHLPRP	-1.9
RRIRHRPPRLPRPRPRPWHSPRP	-0.22
RRIRHRPPRLPRPRPRPWIFPRP	-0.332
RRIRHRPPRLPRPRPRPWKWPRP	-0.00968
RRIRHRPPRLPRPRPRPWMDPRP	0.113
RRIRHRPPRLPRPRPRPWNHPRP	-0.0561
RRIRHRPPRLPRPRPRPWPCPRP	-0.027
RRIRHRPPRLPRPRPRPWPHPRP	-0.0305
RRIRHRPPRLPRPRPRPWPYPRP	-0.01
RRIRHRPPRLPRPRPRPWQYPRP	-0.17
RRIRHRPPRLPRPRPRPWRCPRP	-0.221
RRIRHRPPRLPRPRPRPWSEPRP	0.00408
RRIRHRPPRLPRPRPRPWSMPRP	-0.293
RRIRHRPPRLPRPRPRPWTFPRP	-0.229
RRIRHRPPRLPRPRPRPWTHPRP	-0.00208
RRIRHRPPRLPRPRPRPWTVPRP	-0.217
RRIRHRPPRLPRPRPRPWVPPRP	-0.408
RRIRHRPPRLPRPRPRPWYGPRP	-0.779
RRIRHRPPRLPRPRPRPYADPRP	-0.00783
RRIRHRPPRLPRPRPRPYAEPRP	-0.0381
RRIRHRPPRLPRPRPRPYDSPRP	-0.0275
RRIRHRPPRLPRPRPRPYDYPRP	-0.276

Sequence	shrunken log2 fold change
RRIRHRPPRLPRPRPRPYFGPRP	-0.131
RRIRHRPPRLPRPRPRPYGWPRP	-0.145
RRIRHRPPRLPRPRPRPYIEPRP	-0.68
RRIRHRPPRLPRPRPRPYLGPRP	-0.403
RRIRHRPPRLPRPRPRPYLKPRP	-0.298
RRIRHRPPRLPRPRPRPYMAPRP	-0.339
RRIRHRPPRLPRPRPRPYMIPRP	-0.025
RRIRHRPPRLPRPRPRPYNNPRP	-0.819
RRIRHRPPRLPRPRPRPYNQPRP	-0.342
RRIRHRPPRLPRPRPRPYPEPRP	-0.267
RRIRHRPPRLPRPRPRPYQEPRP	-0.138
RRIRHRPPRLPRPRPRPYQKPRP	-0.01
RRIRHRPPRLPRPRPRPYRFPRP	-0.269
RRIRHRPPRLPRPRPRPYRIPRP	-0.231
RRIRHRPPRLPRPRPRPYRSPRP	0.0215
RRIRHRPPRLPRPRPRPYSFPRP	-0.299
RRIRHRPPRLPRPRPRPYSNPRP	-0.392
RRIRHRPPRLPRPRPRPYTPPRP	-1.32
RRIRIRPPRLPRPRPRPAAHPRP	-0.0526
RRIRIRPPRLPRPRPRPAAKPRP	0.463
RRIRIRPPRLPRPRPRPACAPRP	-0.149
